According to patent publication US20230348569A1:

What was measured:
[1] = molecular target: SARS-CoV-2 spike protein (S-wt, Wuhan-Hu-1, NCBI Accession Number MN908947.3) on VSV-SARS-CoV-2-S pseudoparticles (SARS-CoV-2) (UniProt P0DTC2); experiment: cell-based or functional assay
[2] = molecular target: Bt-MERS.hFc (mAb2664-L2) (MERS-CoV) (UniProt K9N5Q8); experiment: Luminex bead binding, supernatant
[3] = molecular target: MERS.mFc (mAb2663-L1) (MERS-CoV) (UniProt K9N5Q8); experiment: Luminex bead binding, supernatant
[4] = molecular target: MERS.hFc (mAb2664-L1) (MERS-CoV) (UniProt K9N5Q8); experiment: Luminex bead binding, supernatant

Substance | neutralization potency IC50 [1] [nM] | MFI [2] [MFI] | MFI [3] [MFI] | MFI [4] [MFI]
mAb10934 (antibody) | 0.0544 | – | – | –
mAb10936 (antibody) | 0.111 | – | – | –
mAb10987 (antibody) | 0.0406 | 172 | 196 | 235
